Consider three substances from article PMC6412040.

Experiment [1] concerns the target USP37^mUIM1,2,3 (Danio rerio USP37 312–927 with mutations in all three UIMs) (Danio rerio) (UniProt E7F6T8).
For experiment [2], the target named is USP37^wt (isolated catalytic domain of USP37 from Danio rerio, residues 312–927) (Danio rerio) (UniProt E7F6T8).
Chain of USP37^wt (isolated catalytic domain of USP37 from Danio rerio, residues 312–927) (Danio rerio) (E7F6T8 312-927): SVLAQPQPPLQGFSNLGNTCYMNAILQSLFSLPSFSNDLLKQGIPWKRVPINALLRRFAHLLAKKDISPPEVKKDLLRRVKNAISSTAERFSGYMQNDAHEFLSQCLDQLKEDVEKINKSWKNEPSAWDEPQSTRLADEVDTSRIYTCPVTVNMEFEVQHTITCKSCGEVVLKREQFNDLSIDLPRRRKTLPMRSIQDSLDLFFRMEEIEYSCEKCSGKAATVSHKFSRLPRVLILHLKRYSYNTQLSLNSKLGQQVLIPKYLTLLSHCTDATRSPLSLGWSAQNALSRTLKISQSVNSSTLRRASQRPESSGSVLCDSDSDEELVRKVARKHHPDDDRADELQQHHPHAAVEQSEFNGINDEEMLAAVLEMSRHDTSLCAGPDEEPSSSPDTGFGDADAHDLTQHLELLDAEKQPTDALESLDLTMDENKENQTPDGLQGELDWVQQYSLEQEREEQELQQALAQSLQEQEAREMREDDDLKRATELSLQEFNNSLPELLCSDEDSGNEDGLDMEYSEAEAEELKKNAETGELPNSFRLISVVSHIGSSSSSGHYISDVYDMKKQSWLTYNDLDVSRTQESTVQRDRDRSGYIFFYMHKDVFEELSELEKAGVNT

Chain of USP37^mUIM1,2,3 (Danio rerio USP37 312–927 with mutations in all three UIMs) (Danio rerio) (E7F6T8 312-927 V680G/S684A/A774G/S778A/A796G/S800A): as the sequence (E7F6T8 312-927) above, with V369G, S373A, A463G, S467A, A485G, S489A counted along it

On to “K11-linked di-Ub (from UniProt P0CG48 1-76; P0CG48 1-76) (complex)”, for which, in experiment [1], the KM of cleavage of K11-linked di-Ub (1 part IQF di-Ub, 4 parts unlabeled chain), Michaelis-Menten analysis, 25 nM enzyme worked out at 19 µM and the kcat of cleavage of K11-linked di-Ub (1 part IQF di-Ub, 4 parts unlabeled chain), Michaelis-Menten analysis worked out at 0.072 s⁻¹. In experiment [2], the KM of cleavage of K11-linked di-Ub (1 part IQF di-Ub, 4 parts unlabeled chain), Michaelis-Menten analysis, 25 nM enzyme was 11 µM and the kcat of cleavage of K11-linked di-Ub (1 part IQF di-Ub, 4 parts unlabeled chain), Michaelis-Menten analysis is 0.19 s⁻¹.
As to “K48-linked di-Ub (from UniProt P0CG48 1-76; P0CG48 1-76) (complex)”, in experiment [1], the KM of cleavage of K48-linked di-Ub (1 part IQF di-Ub, 4 parts unlabeled chain), Michaelis-Menten analysis, 1.25 nM enzyme amounted to 0.72 µM and the kcat of cleavage of K48-linked di-Ub (1 part IQF di-Ub, 4 parts unlabeled chain), Michaelis-Menten analysis was determined as 0.015 s⁻¹. Moreover, in experiment [2], the KM of cleavage of K48-linked di-Ub (1 part IQF di-Ub, 4 parts unlabeled chain), Michaelis-Menten analysis, 1.25 nM enzyme was 0.4 µM and the kcat of cleavage of K48-linked di-Ub (1 part IQF di-Ub, 4 parts unlabeled chain), Michaelis-Menten analysis came to 0.23 s⁻¹.
With “K63-linked di-Ub (from UniProt P0CG48 1-76; P0CG48 1-76) (complex)”, in experiment [1], the KM of cleavage of K63-linked di-Ub (1 part IQF di-Ub, 4 parts unlabeled chain), Michaelis-Menten analysis, 12.5 nM enzyme is 3.6 µM and the kcat of cleavage of K63-linked di-Ub (1 part IQF di-Ub, 4 parts unlabeled chain), Michaelis-Menten analysis was 0.008 s⁻¹. In experiment [2], the KM of cleavage of K63-linked di-Ub (1 part IQF di-Ub, 4 parts unlabeled chain), Michaelis-Menten analysis, 12.5 nM enzyme is 1.7 µM and the kcat of cleavage of K63-linked di-Ub (1 part IQF di-Ub, 4 parts unlabeled chain), Michaelis-Menten analysis came out at 0.027 s⁻¹.
